Assay results from paper PMC12030614.
* marks the point of attachment. AMC = Cc1cc(=O)oc2cc(N*)ccc12

Legend:
[1] = biological target: Ta-P7 (Triticum aestivum L.)
[2] = biological target: Ta-V6 (Triticum aestivum L.)
[3] = biological target: Triticain-α (Triticum aestivum L.)

B1: acetyl-Pro-Leu-Val-Gln-7-amino-4-methylcoumarin (peptide)
peptide: Ac-PLVQ-{AMC}
SMILES: CC(=O)N1CCC[C@H]1C(=O)N[C@@H](CC(C)C)C(=O)N[C@H](C(=O)N[C@@H](CCC(N)=O)C(=O)Nc1ccc2c(C)cc(=O)oc2c1)C(C)C
KM of Ac-PLVQ-AMC hydrolysis, pH 3.6, 37 °C [1]: 44.7 µM
KM of Ac-PLVQ-AMC hydrolysis, pH 4.6, 37 °C [1]: 32.2 µM
KM of Ac-PLVQ-AMC hydrolysis, pH 5.6, 37 °C [1]: 24.5 µM
KM of Ac-PLVQ-AMC hydrolysis, pH 6.5, 37 °C [1]: 31.4 µM
KM of Ac-PLVQ-AMC hydrolysis, pH 7.5, 37 °C [1]: 35.3 µM
KM of Ac-PLVQ-AMC hydrolysis, pH 3.6, 37 °C [2]: 16.4 µM
KM of Ac-PLVQ-AMC hydrolysis, pH 4.6, 37 °C [2]: 20.5 µM
KM of Ac-PLVQ-AMC hydrolysis, pH 5.6, 37 °C [2]: 22.6 µM
KM of Ac-PLVQ-AMC hydrolysis, pH 6.5, 37 °C [2]: 26.9 µM
KM of Ac-PLVQ-AMC hydrolysis, pH 7.5, 37 °C [2]: 29.2 µM
KM of Ac-PLVQ-AMC hydrolysis, pH 3.6, 37 °C [3]: 21.5 µM
KM of Ac-PLVQ-AMC hydrolysis, pH 4.6, 37 °C [3]: 34.6 µM
KM of Ac-PLVQ-AMC hydrolysis, pH 5.6, 37 °C [3]: 46 µM
KM of Ac-PLVQ-AMC hydrolysis, pH 6.5, 37 °C [3]: 49.4 µM
KM of Ac-PLVQ-AMC hydrolysis, pH 7.5, 37 °C [3]: 583 µM
